From US20180051079A1 (MacroGenics, published 2018)
Substitutions are numbered along the chain they refer to. In names and notes the source's numbering stands.

T1: CD32B (UniProt P31994 43-217, limits assumed)
T1 construct: Only the name is printed; also called FcγRIIB
T1 sequence (looked up): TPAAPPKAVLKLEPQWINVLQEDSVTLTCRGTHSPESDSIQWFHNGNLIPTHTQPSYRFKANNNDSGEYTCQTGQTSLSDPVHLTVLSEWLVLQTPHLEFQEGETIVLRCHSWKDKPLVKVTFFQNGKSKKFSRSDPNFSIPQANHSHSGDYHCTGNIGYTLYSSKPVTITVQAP

B1: Fc variant D270E G316D P396L R416G (other, UniProt P01857-1 104-330, looked up)
chain: DKTHTCPPCPAPELLGGPSVFLFPPKPKDTLMISRTPEVTCVVVDVSHEEPEVKFNWYVDGVEVHNAKTKPREEQYNSTYRVVSVLTVLHQDWLNDKEYKCKVSNKALPAPIEKTISKAKGQPREPQVYTLPPSRDELTKNQVSLTCLVKGFYPSDIAVEWESNGQPENNYKTTPLVLDSDGSFFLYSKLTVDKSGWQQGNVFSCSVMHEALHNHYTQKSLSLSPGK
notes: domain: Fc; also called D270E P396L G316D R416G
B2: Fc variant F243L R292P Y300L P396L (other, UniProt P01857-1 104-330, looked up)
chain: B1 chain with F23L, E50D, R72P, Y80L, D96G, G196R
notes: domain: Fc; also called Mutant 16
B3: Fc variant F243L P247L D270E N421K (other, UniProt P01857-1 104-330, looked up)
chain: B1 chain with F23L, P27L, D96G, L176P, G196R, N201K
notes: domain: Fc
B4: Fc variant F243L D270E P396L Q419H (other, UniProt P01857-1 104-330, looked up)
chain: B1 chain with F23L, D96G, G196R, Q199H
notes: domain: Fc
B5: Fc variant F243I R292P Y300L V305I P396L (other, UniProt P01857-1 104-330, looked up)
chain: B1 chain with F23I, E50D, R72P, Y80L, V85I, D96G, G196R
notes: domain: Fc; Written as printed (F243I); may be a misprint of F243L
B6: Fc variant F243L D270E K392T P396L (other, UniProt P01857-1 104-330, looked up)
chain: B1 chain with F23L, D96G, K172T, G196R
notes: domain: Fc
B7: Fc variant F243L R292P Y300L V305I P396L (other, UniProt P01857-1 104-330, looked up)
chain: B1 chain with F23L, E50D, R72P, Y80L, V85I, D96G, G196R
notes: domain: Fc; also called Mutant 18
B8: Fc variant R255L D270E Y300L P396L (other, UniProt P01857-1 104-330, looked up)
chain: B1 chain with R35L, Y80L, D96G, G196R
notes: domain: Fc
B9: Fc variant R255L D270E P396L (other, UniProt P01857-1 104-330, looked up)
chain: B1 chain with R35L, D96G, G196R
notes: domain: Fc
B10: Fc variant D270E G316D R416G (other, UniProt P01857-1 104-330, looked up)
chain: B1 chain with L176P
notes: domain: Fc
B11: Fc variant D270E P396L Q419H (other, UniProt P01857-1 104-330, looked up)
chain: B1 chain with D96G, G196R, Q199H
notes: domain: Fc
B12: Fc variant D270E K392T P396L (other, UniProt P01857-1 104-330, looked up)
chain: B1 chain with D96G, K172T, G196R
notes: domain: Fc
B13: Fc variant F243L P247L N421K (other, UniProt P01857-1 104-330, looked up)
chain: B1 chain with F23L, P27L, E50D, D96G, L176P, G196R, N201K
notes: domain: Fc
B14: Fc variant F243L R255L D270E P396L (other, UniProt P01857-1 104-330, looked up)
chain: B1 chain with F23L, R35L, D96G, G196R
notes: domain: Fc
B15: Fc variant R255L D270E R292G P396L (other, UniProt P01857-1 104-330, looked up)
chain: B1 chain with R35L, R72G, D96G, G196R
notes: domain: Fc
B16: Fc variant F243L R292P V305I P396L (other, UniProt P01857-1 104-330, looked up)
chain: B1 chain with F23L, E50D, R72P, V85I, D96G, G196R
notes: domain: Fc; also called Mutant 17
B17: Fc variant P247L D270E N421K (other, UniProt P01857-1 104-330, looked up)
chain: B1 chain with P27L, D96G, L176P, G196R, N201K
notes: domain: Fc
B18: Fc variant F243L R292P V305I (other, UniProt P01857-1 104-330, looked up)
chain: B1 chain with F23L, E50D, R72P, V85I, D96G, L176P, G196R
notes: domain: Fc; also called Mutant 13*
B19: Fc variant R292P V305I P396L (other, UniProt P01857-1 104-330, looked up)
chain: B1 chain with E50D, R72P, V85I, D96G, G196R
notes: domain: Fc; also called Mutant 15
B20: Fc variant F243L D270E G316D R416G (other, UniProt P01857-1 104-330, looked up)
chain: B1 chain with F23L, L176P
notes: domain: Fc

Legend:
[1] = target: T1, CD32B; assay: assay not named in Table 4
[2] = target: T2, CD16A V158 (UniProt P08637 17-208, limits assumed); assay: assay not named in Table 4
T2 construct: Only the name and allotype are printed; also called FcγRIIIA

[3] = target: T3, CD16A F158 (UniProt P08637 17-208, limits assumed); assay: assay not named in Table 4
T3 construct: Only the name and allotype are printed; also called FcγRIIIA

[4] = target: T1, CD32B; assay: assay not named in Table 4; cell stands under CD16A F158 but fits CD32B (0.94/1.07 = 0.88)

T3 sequence (P08637 17-208 limits assumed): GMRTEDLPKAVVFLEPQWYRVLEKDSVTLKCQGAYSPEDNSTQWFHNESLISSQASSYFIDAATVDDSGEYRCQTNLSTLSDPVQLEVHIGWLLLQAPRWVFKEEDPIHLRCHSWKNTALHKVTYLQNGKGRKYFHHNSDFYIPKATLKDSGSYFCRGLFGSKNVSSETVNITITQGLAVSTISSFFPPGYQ
T2 sequence (P08637 17-208 F176V limits assumed): as the sequence (P08637 17-208 limits assumed) above, with F160V counted along it

Molecule | binding relative to wild-type Fc [1] | binding relative to wild-type Fc [2] | binding relative to wild-type Fc [3] | binding relative to wild-type Fc [4]
Fc variant V284M R292P K370N (from UniProt P01857 104-330) | 0.37 | 1.14 | 1.37 | –
B1 | 1.07 | – | – | 1.07
B2 | 1.07 | 10.1 | 5.62 | –
B3 | 0.32 | 2.3 | 3.45 | –
B4 | 0.26 | 1.46 | 1.15 | –
B5 | 1.05 | – | 3.12 | –
B6 | 0.44 | 3.16 | 2.44 | –
B7 | 1.38 | 10.1 | 8.25 | –
B8 | 0.87 | 1.52 | 1.74 | –
B9 | 0.87 | 1.34 | 1.65 | –
B10 | 0.78 | 2.18 | 2.49 | –
B11 | 0.68 | 1.64 | – | –
B12 | 0.79 | 1.81 | 2.28 | –
B13 | 0.17 | 1.89 | 1.71 | –
B14 | 0.38 | 1.75 | 1.64 | –
B15 | 0.65 | – | – | –
B16 | 0.4 | 5.37 | 2.53 | –
B17 | 0.58 | 1.89 | 2.46 | –
B18 | – | 2.56 | 1.43 | –
B19 | 0.92 | 1.85 | 1.9 | –
B20 | 0.2 | 1.5 | 1.34 | –
